According to US20160195541A1:
Several values for one entry are separate records, joined by “and”; a condition that tells them apart may be missing. Equal values may be shown once.

Key:
[1] = target: membrane-bound human FcγRIIB on Raji cells (human) (UniProt P31994); experiment: FACS on Raji cells (FACS021), constant aggregated IgG; competitor SM101 IMP 0.5 µg/µL
[2] = target: membrane-bound human FcγRIIB on Raji cells (human) (UniProt P31994); experiment: FACS on Raji cells (FACS007), constant aggregated IgG; competitor SM101 0.0078 µg/µL
[3] = target: membrane-bound human FcγRIIB on Raji cells (human) (UniProt P31994); experiment: FACS on Raji cells, aggregated Beriglobin at 5.0 (µg/µL)
[4] = target: membrane-bound human FcγRIIB on Raji cells (human) (UniProt P31994); experiment: FACS on Raji cells (FACS021), constant aggregated IgG; competitor SM101 Ref. Std. 0.0078 µg/µL
[5] = target: membrane-bound human FcγRIIB on Raji cells (human) (UniProt P31994); experiment: FACS on Raji cells (FACS007), constant aggregated IgG; competitor SM101 0.0156 µg/µL
[6] = target: membrane-bound human FcγRIIB on Raji cells (human) (UniProt P31994); experiment: FACS: 0.1E6 Raji cells (FcγRIIB) with 2.5 µg aggregated Beriglobin at the stated pH; 1/200 anti-human IgG(H+L)-PE; secondary antibody alone in this panel 173; pH 6.7
[7] = target: membrane-bound human FcγRIIB on Raji cells (human) (UniProt P31994); experiment: FACS on Raji cells (FACS007), constant aggregated IgG, anti-human IgG-PE; no competitor
[8] = target: membrane-bound human FcγRIIB on Raji cells (human) (UniProt P31994); experiment: FACS on Raji cells (FACS021), constant aggregated IgG; competitor SM101 Ref. Std. 0.0625 µg/µL
[9] = target: membrane-bound human FcγRIIB on Raji cells (human) (UniProt P31994); experiment: FACS on Raji cells (FACS007), constant aggregated IgG; competitor SM101 0.03125 µg/µL
[10] = target: membrane-bound human FcγRIIB on Raji cells (human) (UniProt P31994); experiment: FACS: 0.1E6 Raji cells (FcγRIIB) with 2.5 µg aggregated Beriglobin at the stated pH; 1/200 anti-human IgG(H+L)-PE; secondary antibody alone in this panel 173; pH 7.2
[11] = target: membrane-bound human FcγRIIB on Raji cells (human) (UniProt P31994); experiment: FACS on Raji cells (FACS021), constant aggregated IgG; no competitor (IMP series)
[12] = target: membrane-bound human FcγRIIB on Raji cells (human) (UniProt P31994); experiment: FACS: 0.1E6 Raji cells (FcγRIIB) with 2.5 µg aggregated Beriglobin at the stated pH; 1/200 anti-human IgG(H+L)-PE; drawn table, secondary antibody control not subtracted
[13] = target: membrane-bound human FcγRIIB on Raji cells (human) (UniProt P31994); experiment: FACS: 0.1E6 Raji cells (FcγRIIB) with 2.5 µg aggregated Beriglobin at the stated pH; 1/200 anti-human IgG(H+L)-PE; drawn table, secondary antibody control not subtracted; pH 6.5
[14] = target: membrane-bound human FcγRIIB on Raji cells (human) (UniProt P31994); experiment: FACS on Raji cells (FACS021), constant aggregated IgG; no competitor (Ref. Std. series)
[15] = target: membrane-bound human FcγRIIB on Raji cells (human) (UniProt P31994); experiment: FACS: 0.1E6 Raji cells (FcγRIIB) with 2.5 µg aggregated Beriglobin at the stated pH; 1/200 anti-human IgG(H+L)-PE; secondary antibody alone in this panel 142
[16] = target: membrane-bound human FcγRIIB on Raji cells (human) (UniProt P31994); experiment: FACS on Raji cells (FACS021), constant aggregated IgG; competitor SM101 IMP 0.03125 µg/µL
[17] = target: membrane-bound human FcγRIIB on Raji cells (human) (UniProt P31994); experiment: FACS on Raji cells (FACS021), constant aggregated IgG; competitor SM101 Ref. Std. 0.125 µg/µL
[18] = target: membrane-bound human FcγRIIB on Raji cells (human) (UniProt P31994); experiment: FACS: 0.1E6 Raji cells (FcγRIIB) with 2.5 µg aggregated Beriglobin at the stated pH; 1/200 anti-human IgG(H+L)-PE; secondary antibody alone in this panel 173; pH 6.5
[19] = target: membrane-bound human FcγRIIB on Raji cells (human) (UniProt P31994); experiment: FACS on Raji cells, aggregated Beriglobin at 2.5 (µg/µL); mean of three batches
[20] = target: membrane-bound human FcγRIIB on Raji cells (human) (UniProt P31994); experiment: FACS: 0.1E6 Raji cells (FcγRIIB) with 2.5 µg aggregated Beriglobin at the stated pH; 1/200 anti-human IgG(H+L)-PE; secondary antibody alone in this panel 173
[21] = target: membrane-bound human FcγRIIB on Raji cells (human) (UniProt P31994); experiment: FACS on Raji cells (FACS007), constant aggregated IgG; competitor SM101 0.25 µg/µL
[22] = target: membrane-bound human FcγRIIB on Raji cells (human) (UniProt P31994); experiment: FACS: 0.1E6 Raji cells (FcγRIIB) with 2.5 µg aggregated Beriglobin at the stated pH; 1/200 anti-human IgG(H+L)-PE; drawn table, secondary antibody control not subtracted; pH 7.2
[23] = target: membrane-bound human FcγRIIB on Raji cells (human) (UniProt P31994); experiment: FACS on Raji cells (FACS021), constant aggregated IgG; competitor SM101 Ref. Std. 0.5 µg/µL
[24] = target: membrane-bound human FcγRIIB on Raji cells (human) (UniProt P31994); experiment: FACS on Raji cells, aggregated Beriglobin at 2.5 (µg/µL)

Sequence of UniProt P31994 (P31994 43-310): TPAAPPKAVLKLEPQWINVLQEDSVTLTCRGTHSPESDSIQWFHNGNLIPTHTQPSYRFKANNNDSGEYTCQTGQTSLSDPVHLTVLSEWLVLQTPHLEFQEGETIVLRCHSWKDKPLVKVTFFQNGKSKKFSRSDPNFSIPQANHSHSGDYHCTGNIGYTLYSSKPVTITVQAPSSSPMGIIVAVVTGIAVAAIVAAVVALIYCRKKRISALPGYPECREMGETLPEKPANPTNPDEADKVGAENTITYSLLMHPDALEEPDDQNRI

“aggregated human IgG (aggregated Beriglobin, aggregated fraction isolated by size exclusion chromatography) (antibody)” was tested, and the Median Signal [1] was 195, the Median Signal [2] was 3010 and the Median MFI [3] was 1230 and 1140 and 960. The Median Signal [4] was 5230, the Median Signal [5] was 2270 and the Median MFI at pH 6.7 (left panel) [6] was 578. The Median Signal [7] was 3880, the Median Signal [8] was 921 and the Median Signal [9] was 1240. The Median MFI at pH 7.2 (left panel) [10] was 561, the Median Signal [11] was 6930 and the Median MFI at pH 7 [12] was 599. It also gave a Median MFI at pH 7.8 [12] of 363, a Median MFI at pH 8 [12] of 348 and a Median MFI at pH 8.5 [12] of 246. For the same substance, the Median MFI at pH 9 [12] was 244, the Median MFI at pH 10 [12] was 177 and the Median MFI at pH 6.5 [13] was 703. It also gave a Median Signal [14] of 6460, a Median MFI at pH 7.0 (right panel) [15] of 866 and a Median MFI at pH 8.0 (right panel) [15] of 316. For the same substance, the Median MFI at pH 8.5 (right panel) [15] was 246, the Median MFI at pH 9.0 (right panel) [15] was 244 and the Median MFI at pH 10 (right panel) [15] was 177. The Median Signal [16] was 1780, the Median Signal [17] was 362 and the Median MFI at pH 6.5 (left panel) [18] was 703. The Median MFI (mean) [19] was 1280, the Median MFI at pH 7.0 (left panel) [20] was 599 and the Median MFI at pH 7.8 (left panel) [20] was 363. For the same substance, the Median MFI at pH 8.0 (left panel) [20] was 348, the Median Signal [21] was 197 and the Median MFI at pH 7.2 [22] was 561. The Median Signal [23] was 182 and the Median MFI [24] was 1350 and 1500 and 1000.
